Patent US20250339569A1, “CARBONIC ANHYDRASE IX LIGANDS” (priority 2021, published 2025)

Target: human carbonic anhydrase 9 (CAIX) (human), Q16790
Assay: FACS competition on HT-29 cells, competitor tracer 3BP-2776; category A = pIC50 >8.0

With VCCEPDWLTWCC (modifications not checked) [3BP-4179] the pIC50 was > 8 pic50.
